The source of these data is patent US20190031760A1 (Hoffmann-La Roche, published 2019).

In general, Kd refers to a measure of binding affinity in units of concentration. A high value points to lower affinity. The koff is the first-order rate constant of dissociation. One may read the kon as a measure of how fast the partners come together. Low values mean slower complex formation, high ones faster complex formation.

Experiment [1] has as its target T1, human ASGPR H1 on ASGPR-positive hepatic cells (HepG2, primary human hepatocytes, Huh-7) (human, UniProt P07306 1-291).
T1 construct: whole, on cells; Endogenous receptor on cells; the antibodies were selected on H1; also called surface-exposed ASGPR
T1 sequence (looked up): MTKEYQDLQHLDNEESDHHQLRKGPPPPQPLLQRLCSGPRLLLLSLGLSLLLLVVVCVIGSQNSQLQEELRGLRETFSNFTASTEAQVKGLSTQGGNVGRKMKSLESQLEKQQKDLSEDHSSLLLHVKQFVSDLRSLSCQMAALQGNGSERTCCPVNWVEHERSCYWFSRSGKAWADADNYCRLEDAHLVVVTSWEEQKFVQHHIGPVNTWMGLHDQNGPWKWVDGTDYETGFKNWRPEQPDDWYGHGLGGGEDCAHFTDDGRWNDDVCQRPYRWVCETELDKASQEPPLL
Description: FACS on HepG2 cells, human IgG1 in a dilution row up to 20 µg/ml, 30 min at 4°C, FITC anti-human IgG Fc secondary.

In experiment [2] the target is T1, human ASGPR H1 on ASGPR-positive …. The experiment in a line: FACS on HepG2 cells, FITC-labeled IgG 30 µg/ml bound at 4°C, washed, then 37°C for up to 120 min; PE anti-Fc detection of surface antibody.
For experiment [3] the target is unchanged. Description: FACS on HepG2 cells, human IgG1 at 0.01 to 10 µg/ml.
Experiment [4] has the same target. The experiment in a line: FACS on HepG2 cells, human IgG1 at 30 µg/ml, 30 min at 4°C, FITC anti-human IgG Fc secondary F(ab')2.
Experiment [5] addresses T2, avi-Fc-human ASGPR H1 CRD (human, UniProt P0DOX5 223-449 = IgG part, biotinylated at the N-terminal Avi tag).
T2 construct: also called Fc-CRD; hu/cyASGPR H1 CRD
Description: SPR (ProteOn XPR36), antigen captured by neutravidin, antibody construct as analyte.

For experiment [6], the target named is T1, human ASGPR H1 on ASGPR-positive …. Description: FACS on HepG2 cells, antibody 1.25, 6 and 30 µg/ml without or with Alexa488 asialofetuin (100 µg/ml), APC anti-human IgG Fc detection.
Experiment [7] deals with T3, avi-Fc-human ASGPR H1 stalk (human, biotinylated at the N-terminal Avi tag).
T3 construct: Homodimeric Fc fusion (wild type Fc); also called huASGPR H1 stalk; Fc-stalk
The experiment in a line: SPR (ProteOn XPR36), antigen captured by neutravidin, Fab as analyte.

Experiment [8] addresses T4, avi-Fc-human CLEC10A stalk CRD (human, biotinylated at the N-terminal Avi tag).
T4 construct: Homodimeric Fc fusion of the human CLEC10A ECD, closest homologue of ASGPR H1, used as specificity control; also called huCLEC10A stalk CRD
The description is as above.

Experiment [9] deals with T5, avi-Fc-cynomolgus ASGPR H1 stalk (cynomolgus, biotinylated at the N-terminal Avi tag).
T5 construct: Homodimeric Fc fusion (wild type Fc); also called cyASGPR H1 stalk
The description is as above.

The target of experiment [10] is T6, avi-Fc-human ASGPR H1 stalk CRD (human, biotinylated at the N-terminal Avi tag).
T6 construct: Homodimeric (bivalent) Fc fusion of the human ASGPR H1 ECD (stalk and CRD); also called huASGPR H1 stalk CRD; Fc-stalk-CRD
The description is as above.

T3 sequence (chain, as listed by the source limits assumed): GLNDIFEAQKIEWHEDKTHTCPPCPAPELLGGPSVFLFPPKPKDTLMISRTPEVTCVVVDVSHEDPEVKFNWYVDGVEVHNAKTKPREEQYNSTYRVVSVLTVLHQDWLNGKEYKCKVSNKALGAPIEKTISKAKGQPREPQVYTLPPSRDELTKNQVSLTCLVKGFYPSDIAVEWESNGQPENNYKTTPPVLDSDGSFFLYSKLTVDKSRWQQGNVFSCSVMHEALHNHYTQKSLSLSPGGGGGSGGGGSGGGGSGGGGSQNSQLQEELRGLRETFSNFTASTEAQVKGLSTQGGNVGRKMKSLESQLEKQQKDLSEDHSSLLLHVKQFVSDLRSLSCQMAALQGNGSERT
T5 sequence (chain, as listed by the source limits assumed): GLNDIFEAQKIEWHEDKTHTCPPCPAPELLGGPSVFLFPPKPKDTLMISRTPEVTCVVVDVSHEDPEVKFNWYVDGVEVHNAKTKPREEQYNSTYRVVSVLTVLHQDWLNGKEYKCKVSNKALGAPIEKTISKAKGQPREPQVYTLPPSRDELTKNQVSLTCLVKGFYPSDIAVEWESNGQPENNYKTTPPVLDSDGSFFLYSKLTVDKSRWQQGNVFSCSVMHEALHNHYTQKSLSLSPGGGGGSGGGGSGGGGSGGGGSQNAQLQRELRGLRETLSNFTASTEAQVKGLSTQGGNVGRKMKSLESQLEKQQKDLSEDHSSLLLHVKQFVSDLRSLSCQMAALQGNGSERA
T4 sequence (chain, as listed by the source limits assumed): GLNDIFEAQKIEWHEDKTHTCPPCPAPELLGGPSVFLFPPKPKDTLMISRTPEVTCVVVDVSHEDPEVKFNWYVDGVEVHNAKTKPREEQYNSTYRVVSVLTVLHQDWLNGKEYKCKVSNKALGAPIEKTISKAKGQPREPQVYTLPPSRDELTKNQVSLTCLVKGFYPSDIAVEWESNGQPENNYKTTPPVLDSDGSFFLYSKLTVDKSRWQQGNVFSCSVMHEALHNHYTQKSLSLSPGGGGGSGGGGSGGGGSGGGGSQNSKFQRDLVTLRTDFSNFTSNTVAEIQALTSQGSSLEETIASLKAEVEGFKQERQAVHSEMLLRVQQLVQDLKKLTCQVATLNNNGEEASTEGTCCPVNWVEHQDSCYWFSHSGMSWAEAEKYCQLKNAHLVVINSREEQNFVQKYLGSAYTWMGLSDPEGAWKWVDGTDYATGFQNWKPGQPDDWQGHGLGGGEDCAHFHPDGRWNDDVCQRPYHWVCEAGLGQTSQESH

B1: 51A12_A6 human IgG1 antibody (antibody, V domains shown)
VH: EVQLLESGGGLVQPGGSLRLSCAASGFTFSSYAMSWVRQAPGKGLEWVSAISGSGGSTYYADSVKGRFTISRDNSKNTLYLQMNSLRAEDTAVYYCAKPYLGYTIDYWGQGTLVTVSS
VL: SSELTQDPAVSVALGQTVRITCQGDSLRSYYASWYQQKPGQAPVLVIYGKNNRPSGIPDRFSGSSSGNTASLTITGAQAEDEADYYCNSRTYSYNRAVRNFGGGTKLTVL
notes: also called 51A12_A6 IgG1-converted antibody
As for B1, the binding result in experiment [1] is “binds”.

B2: 51A12_E7 human IgG1 antibody (antibody, V domains shown)
VH: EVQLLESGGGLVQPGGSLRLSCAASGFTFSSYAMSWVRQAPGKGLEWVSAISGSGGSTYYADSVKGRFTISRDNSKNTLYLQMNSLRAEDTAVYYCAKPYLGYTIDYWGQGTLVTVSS
VL: SSELTQDPAVSVALGQTVRITCQGDSLRSYYASWYQQKPGQAPVLVIYGKNNRPSGIPDRFSGSSSGNTASLTITGAQAEDEADYYCNSRDYRYNRAVRPFGGGTKLTVL
notes: also called 51A12_E7 IgG1-converted antibody
Consider B2, for which the binding result in experiment [2] is “binds”.

B3: 51A12_D1 human IgG1 antibody (antibody, V domains shown)
VH: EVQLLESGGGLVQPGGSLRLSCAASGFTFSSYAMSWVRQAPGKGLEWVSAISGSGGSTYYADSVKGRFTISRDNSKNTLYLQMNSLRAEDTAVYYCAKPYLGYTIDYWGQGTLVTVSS
VL: SSELTQDPAVSVALGQTVRITCQGDSLRSYYASWYQQKPGQAPVLVIYGKNNRPSGIPDRFSGSSSGNTASLTITGAQAEDEADYYCNSRTYSYNRAVRPFGGGTKLTVL
notes: also called 51A12_D1 IgG1-converted antibody
Consider B3, for which, in experiment [3], the binding result is “binds”.

B4: 51A12_C1 human IgG1 antibody (antibody, V domains shown)
VH: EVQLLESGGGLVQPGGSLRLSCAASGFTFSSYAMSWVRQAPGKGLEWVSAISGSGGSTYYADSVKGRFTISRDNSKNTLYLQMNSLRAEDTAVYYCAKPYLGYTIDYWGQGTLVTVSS
VL: SSELTQDPAVSVALGQTVRITCQGDSLRSYYASWYQQKPGQAPVLVIYGKNNRPSGIPDRFSGSSSGNTASLTITGAQAEDEADYYCNSRSYAFNRVVRNFGGGTKLTVL
notes: also called 51A12_C1 IgG1-converted antibody
For the molecule B4, the binding result in experiment [2] is reported as “binds”.

B5: 51A12_H3 human IgG1 antibody (antibody, V domains shown)
VH: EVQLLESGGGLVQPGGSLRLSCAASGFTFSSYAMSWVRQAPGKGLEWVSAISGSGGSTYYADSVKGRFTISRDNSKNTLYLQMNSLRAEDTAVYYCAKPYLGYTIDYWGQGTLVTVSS
VL: SSELTQDPAVSVALGQTVRITCQGDSLRSYYASWYQQKPGQAPVLVIYGKNNRPSGIPDRFSGSSSGNTASLTITGAQAEDEADYYCNSRDYKFNRVVRNFGGGTKLTVL
notes: also called 51A12_H3 IgG1-converted antibody
Consider B5, for which the binding result in [1] is recorded as “binds”.

B6: 51A12_H6 human IgG1 antibody (antibody, V domains shown)
VH: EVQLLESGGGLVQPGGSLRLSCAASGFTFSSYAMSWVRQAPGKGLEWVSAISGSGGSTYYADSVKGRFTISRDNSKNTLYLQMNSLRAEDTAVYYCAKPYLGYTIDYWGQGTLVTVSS
VL: SSELTQDPAVSVALGQTVRITCQGDSLRSYYASWYQQKPGQAPVLVIYGKNNRPSGIPDRFSGSSSGNTASLTITGAQAEDEADYYCNSRDYKWNRVVRHFGGGTKLTVL
notes: also called 51A12_H6 IgG1-converted antibody
As for B6, the binding result in experiment [1] is on record as “binds”.

B7: 51A12_C7 human IgG1 antibody (antibody, V domains shown)
VH: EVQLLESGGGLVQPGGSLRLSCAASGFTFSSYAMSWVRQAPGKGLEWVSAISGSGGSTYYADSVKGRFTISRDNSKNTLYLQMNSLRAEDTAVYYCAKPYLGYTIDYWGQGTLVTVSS
VL: SSELTQDPAVSVALGQTVRITCQGDSLRSYYASWYQQKPGQAPVLVIYGKNNRPSGIPDRFSGSSSGNTASLTITGAQAEDEADYYCNSRDIRYNRVVRPFGGGTKLTVL
notes: also called 51A12_C7 IgG1-converted antibody
As for B7, the binding result in experiment [2] is on record as “binds”.

B8: ASGPR 5A4 (antibody, V domains shown)
VH: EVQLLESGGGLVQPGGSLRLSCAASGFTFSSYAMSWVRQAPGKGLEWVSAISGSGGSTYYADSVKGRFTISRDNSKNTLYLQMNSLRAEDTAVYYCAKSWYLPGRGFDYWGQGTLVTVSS
VL: SSELTQDPAVSVALGQTVRITCQGDSLRSYYASWYQQKPGQAPVLVIYGKNNRPSGIPDRFSGSSSGNTASLTITGAQAEDEADYYCNSRLRSGKMVVFGGGTKLTVL
notes: the list has only its Fab and its IgG-IFNα conjugate; also called 5A4 IgG; 5A4 human IgG1 antibody
As to B8, in experiment [4], the binding result was “binds”.

B9: 52C4 IgG (antibody, V domains shown)
VH: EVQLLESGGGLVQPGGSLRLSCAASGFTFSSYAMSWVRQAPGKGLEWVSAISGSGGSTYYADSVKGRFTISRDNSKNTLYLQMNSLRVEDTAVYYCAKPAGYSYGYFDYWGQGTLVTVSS
VL: SSELTQDPAVSVALGQTVRITCQGDSLRSYYASWYQQKPGQAPVLVIYGKNNRPSGIPDRFSGSSSGNTASLTITGAQAEDEADYYCNSGASSGNQLVFGGGTKLTVL
notes: also called 52C4 human IgG1 antibody
With B9, in [5], the Kd is 0.89 nM, the koff was determined as 0.000499 s⁻¹ and the kon worked out at 557000 M⁻¹ s⁻¹. In experiment [6], the binding result is recorded as “binds”.

B10: 5A4 Fab (Fab, V domains shown)
VH: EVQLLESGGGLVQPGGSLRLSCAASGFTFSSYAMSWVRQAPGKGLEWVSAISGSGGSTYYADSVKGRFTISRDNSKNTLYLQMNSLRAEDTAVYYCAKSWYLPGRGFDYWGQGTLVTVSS
VL: SSELTQDPAVSVALGQTVRITCQGDSLRSYYASWYQQKPGQAPVLVIYGKNNRPSGIPDRFSGSSSGNTASLTITGAQAEDEADYYCNSRLRSGKMVVFGGGTKLTVL
notes: Human lambda Fab from E. coli
In the case of B10, the Kd in experiment [7] was 4.3 nM; in experiment [9], 3.76 nM. Besides, the koff in [7] came to 0.00105 s⁻¹; in experiment [9], 0.0014 s⁻¹. For the same molecule, the kon in experiment [7] amounted to 244000 M⁻¹ s⁻¹; in [9] it was 372000 M⁻¹ s⁻¹. For the same molecule, the binding result in experiment [8] and in [10] was “no binding” throughout.
